Results published in paper PMC9095878.
Values joined by “and” are separate entries in the source; they are usually repeats but may differ in a detail not shown here. Equal entries are not always repeated.

Molecular target: N-terminal domain of mouse gasdermin-A3 released by TEV cleavage (mGSDMA3^Nterm) (mouse) (UniProt Q5Y4Y6)
Assay: atomic force microscopy; supported lipid membranes (E. coli polar lipid extract) on mica incubated 3 h at 37 °C with 1.5 µM mGSDMA3 pre-cleaved with 0.4 µM TEV, rinsed, imaged by contact mode or FD-based AFM at room temperature in 50 mM NaCl, 0.1 mM EDTA, 0.1 mM TCEP, 20 mM Hepes, pH 7.4; subunits of ring-shaped oligomers counted from rotational power spectra

stoichiometry N: 18 to 36 (2×) and 30
Substance: N-terminal domain of mouse gasdermin-A3 released by TEV cleavage (mGSDMA3^Nterm) (from UniProt Q5Y4Y6 1-237) (domain or fragment)
